Experimental data published in paper PMC7347389.

Biological target: Cys109 (UniProt position 128, ADAGFCYPPET)
Assay: NMR
Settings: 25 °C (general NMR condition 'unless stated otherwise'; not stated specifically for the pH series); reduced nDsbD (C103 and C109 as thiols), isolated domain, folded, cap loop closed

For “Thiol:disulfide interchange protein DsbD, N-terminal domain (nDsbD) (Escherichia coli)”, the pKa was “above 11”.
